Values quoted from earlier work in article PMC12732943.
pKd: −log10 of the molar value.

Target: Fibrin (Homo sapiens) (UniProt P02671)

pKd: 6.52
Substance: GPVI (monomeric) (from UniProt Q9HCN6)
